Results: patent publication US20050032696A1 (published 2005)

Molecular target: the molecule itself
Assay: yeast two-hybrid mating assay, β-galactosidase reporter
Method: The dual reporter YM4271 yeast strains containing the USE-B1 and USE-B1b tandem repeats have been described previously (O'Mahoney et al. 1998). A two-hybrid mating assay was used to examine the transactivation and dimerisation functions of hMusTRD1α1. The yeast reporter strain Y190 (CLONTECH) was transformed with 1 μg of pAS2-1, pAS2-1:hMusTRD1α1, or pAS2-1:ΔhMusTRD1α1 using an alkali cation method (BIO 101, Inc., La Jolla, Calif.) and mated with Y187 cells carrying either pACTII, pGAD10:hMusTRD1α1 or, pACTII:ΔhMusTRD1α1. Transformants were selected on complete synthetic media plates lacking tryptophan and leucine (BIO 101). Diploid cells were grown to saturation and used to inoculate test cultures (OD₆₀₀=0.1) that were grown for a further 24 h at 30° C. Cells were harvested in 100 μl Breaking Buffer (100 mM Tris-HCl pH 8, 20% glycerol, 5 mM PMSF, 2 mM DTT) and lysed by vortexing with glass beads. Protein concentration was determined by the Bradford method (Bio-Rad Laboratories, Sydney, NSW). Protein extracts (20 μg) were assayed for β-galactosidase activity with a chemiluminescence detection kit (CLONTECH) and a Turner Designs 20/20 luminometer (Sunnyvale, Calif.).

B1: ΔhMusTRD1α1 (truncated human MusTRD1α1, amino acids 1-458) (other)
chain: MALLGKRCDVPTNGCGPDRWNSAFTRKDEIITSLVSALDSMCSALSKLNAEVACVAVHDESAFVVGTEKGRMFLNARKELQSDFLRFCRGPPWKDPEAEHPKKVQRGEGGGRSLPRSSLEHGSDVYLLRKMVEEVFDVLYSEALGRASVVPLPYERLLREPGLLAVQGLPEGLAFRRPAEYDPKALMAILEHSHRIRFKLKRPLEDGGRDSKALVELNGVSLIPKGSRDCGLHGQAPKVPPQDLPPTATSSSMASFLYSTALPNHAIRELKQEAPSCPLAPSDLGLSRPMPEPKATGAQDFSDCCGQKPTGPGGPLIQNVHASKRILFSIVHDKSEKWDAFIKETEDINTLRECVQILFNSRYAEALGLDHMVPVPYRKIACDPEAVEIVGIPDKIPFKRPCTYGVPKLKRILEERHSIHFIIKRMFDERIFTGNKFTKDTTKLEPASPPEDTSAEVS
notes: the fusion parts are not written into the chain; In the COS-7 Western blot it was expressed from pCI-neo; also called ΔMusTRD; hMusTRD1α1458aa
- binding result: binds
